From patent US20130331517A1, “Novel Polymer Derivative Of Cytidine Metabolic Antagonist” (NIPPON KAYAKU KABUSHIKI KAISHA, priority 2010, published 2013)

Assays:
[1] = system: human lung cancer LC-11-JCK; experiment: Anti-tumor activity test, human lung cancer LC-11-JCK transplanted subcutaneously in F344 nude rat; assay type: in vivo; settings: for Relative ratio of tumor volume: F344 nude rat, day 23 after administration start, relative to no-treatment group (100.0); for Anti-tumor effects in comparison to 3′-ethynylcytidine as the control drug: maximum dose, when the change of the body weight was about 10% or less of the maximum decrease rate
Method: The human lung cancer LC-11-JCK which had been subcultured under the skin of a rat was made to a block of about 2 mm square, and transplanted subcutaneously into the dorsal part of F344 nude rat using an over-needle catheter. From day 13 after the tumor transplant, the polymer derivative of the present invention (Compound 5, Compound 10) was administered intravenously single time in the dose listed in Table 1. In addition, the control drug (3′-ethynylcytidine; ECyd) was administered subcutaneously by infusion over 24 hours using Alzet pump. Meanwhile, each compound was used as dissolved in 5% glucose solution. The administration was performed such that the dose when the change of the body weight was about 10% of the maximum decrease rate was taken as the maximum dose.
The tumor volume was measured on the start day of the administration and on day 23 after the administration start with vernier calipers for the major axis (L mm) and minor axis (W mm) of the tumor, and the tumor volume was calculated from (L×W^2)/2, and the relative ratio of the tumor volume with respect to the tumor volume of the no-treatment group (control) was listed in Table 1.

[2] = Particle size (RMS radius) and micelle formation in aqueous solution by dynamic and static light scattering; assay type: physicochemical; settings: aqueous solution 1 mg/mL; for RMS radius by Gaussian distribution analysis (dynamic light scattering): volume weighting
Method: Hereinafter, the present invention will be further explained with Examples. However, the present invention is not limited to these Examples. Meanwhile, when the compound of the present invention forms particles such as a micelle in an aqueous solution in Examples, the size of the particles (particle size) is indicated with Gaussian distribution analysis by dynamic light scattering method or by static light scattering method as RMS radius. The former was measured with Zeta Potential/Particle sizer NICOMP™ 380ZLS (manufactured by Particle Sizing Systems), and the latter was measured with DAWN EOS™ (manufactured by Wyatt Technology), and calculated.

[3] = Medicament release of 3′-ethynylcytidine polymer derivative in the absence of enzyme (PBS, pH 7.4, 37° C.); assay type: physicochemical; settings: 1 mg/mL, no hydrolysis enzyme
Method: Compound 5, Compound 10, Compound 15, Compound 21 and Compound 22, and PEG-Glu-ECyd in which 3′-ethynylcytidine derivative is bonded to a polyethylene glycol-polyglutamic acid block copolymer, and PEG-Glu-(ECyd, PheOBzl) in which 3′-ethynylcytidine and phenylalanine benzyl ester are bonded to a polyethylene glycol-polyglutamic acid block copolymer, which were manufactured by the method described in the pamphlet of WO 2006/120914 A as the comparative compounds, were dissolved in PBS solution (phosphate buffered saline; pH 7.4) at 1 mg/mL of the concentration, respectively, and incubated at 37° C. The 3′-ethynylcytidine released from each polymer derivative was quantified using HPLC. The ratio to the total amount of the medicament in the polymer derivative found out from the quantified value and the content of the medicament of the polymer derivative are indicated in FIGS. 1 to 3.

[4] = single intravenous administration, dose 6 mg/Kg in conversion to 3′-ethynylcytidine
[5] = single intravenous administration, dose 12 mg/Kg in conversion to 3′-ethynylcytidine

C#C[C@@]1(O)[C@@H](CO)O[C@@H](n2ccc(N)nc2=O)[C@@H]1O [Control drug, 3′-ethynylcytidine, reference compound]
Relative ratio of tumor volume ([1]; subcutaneous infusion over 24 hours using Alzet pump, dose 6 mg/Kg): 49.4

amide-bonded body of block copolymer including methoxy polyethylene-glycol structural moiety having 12,000 of the molecular weight and polyglutamic acid moiety having 21 of the polymerization number, to aspartic acid-1-adamantane methyl amide-4-(3′-ethynylcytidine)amide [Compound 15]
Micelle formation in water [2]: formed a micelle in water | RMS radius by static light scattering method [2]: 13 nm | RMS radius by Gaussian distribution analysis (dynamic light scattering) [2]: 20 nm | Release of 3′-ethynylcytidine from the polymer derivative [3]: release 3′-ethynylcytidine despite the absence of a hydrolysis enzyme | Release rate of 3′-ethynylcytidine relative to the comparative compounds [3]: equal to or more than that of the comparative compounds

amide-bonded body of block copolymer including methoxy polyethylene-glycol structural moiety having 12,000 of the molecular weight and polyglutamic acid moiety having 21 of the polymerization number, to aspartic acid-1-butyl amide-4-(3′-ethynylcytidine)amide [Compound 10]
Micelle formation in water [2]: did not form a micelle in water at this concentration | Relative ratio of tumor volume [1, 4]: 46.7 | Relative ratio of tumor volume [1, 5]: 26.4 | Anti-tumor effects in comparison to 3′-ethynylcytidine as the control drug [1]: strong anti-tumor effects | Release of 3′-ethynylcytidine from the polymer derivative [3]: release 3′-ethynylcytidine despite the absence of a hydrolysis enzyme | Release of 3′-ethynylcytidine relative to PEG-Glu-ECyd [3]: more rapidly than PEG-Glu-ECyd | Release rate of 3′-ethynylcytidine relative to the comparative compounds [3]: equal to or more than that of the comparative compounds

amide-bonded body of block copolymer including methoxy polyethylene-glycol structural moiety having 12,000 of the molecular weight and polyglutamic acid moiety having 21 of the polymerization number, to aspartic acid-1-phenylalanine-(4-phenylbutyl ester)-4-(3′-ethynylcytidine)amide [Compound 21]
Micelle formation in water [2]: formed a micelle in water | RMS radius by static light scattering method [2]: 40 nm | RMS radius by Gaussian distribution analysis (dynamic light scattering) [2]: 41 nm | Release of 3′-ethynylcytidine from the polymer derivative [3]: release 3′-ethynylcytidine despite the absence of a hydrolysis enzyme | Release rate of 3′-ethynylcytidine relative to the comparative compounds [3]: equal to or more than that of the comparative compounds

amide-bonded body of block copolymer including methoxy polyethylene-glycol structural moiety having 12,000 of the molecular weight and polyglutamic acid moiety having 21 of the polymerization number, to aspartic acid-1-phenylbutyl amide-4-(3′-ethynylcytidine)amide [Compound 5]
Micelle formation in water [2]: forms a micelle in water | RMS radius by static light scattering method [2]: 11 nm | RMS radius by Gaussian distribution analysis (dynamic light scattering) [2]: 18 nm | Relative ratio of tumor volume [1, 4]: 44.9 | Relative ratio of tumor volume [1, 5]: 29.3 | Anti-tumor effects in comparison to 3′-ethynylcytidine as the control drug [1]: strong anti-tumor effects | Release of 3′-ethynylcytidine from the polymer derivative [3]: release 3′-ethynylcytidine despite the absence of a hydrolysis enzyme | Release of 3′-ethynylcytidine relative to PEG-Glu-ECyd [3]: more rapidly than PEG-Glu-ECyd | Release rate of 3′-ethynylcytidine relative to the comparative compounds [3]: equal to or more than that of the comparative compounds

amide-bonded body of block copolymer including two methoxy polyethylene glycol moieties having 5,000 of the molecular weight and polyglutamic acid moiety having 21 of the polymerization number, to aspartic acid-1-adamantane methyl amide-4-(3′-ethynylcytidine)amide [Compound 22]
Micelle formation in water [2]: formed a micelle in water | RMS radius by static light scattering method [2]: 8 nm | RMS radius by Gaussian distribution analysis (dynamic light scattering) [2]: 14 nm | Release of 3′-ethynylcytidine from the polymer derivative [3]: release 3′-ethynylcytidine despite the absence of a hydrolysis enzyme | Release rate of 3′-ethynylcytidine relative to the comparative compounds [3]: equal to or more than that of the comparative compounds
